Read-outs that look alike come from different tables or passages of the source.
Tests used:
[1] = biological target: T1, RBD of SARS-CoV-2 spike protein S1 (recombinant, construct not stated) (SARS-CoV-2, UniProt P0DTC2 328-533)
[2] = biological target: T2, S1 protein of SARS-CoV-2 (recombinant, construct not stated) (SARS-CoV-2, UniProt P0DTC2 16-685)
[3] = biological target: T2, S1 protein of SARS-CoV-2 (recombinant, …); remark: listed apart in the source
[4] = biological target: T2, S1 protein of SARS-CoV-2 (recombinant, …); assay: ELISA, S1 coated, scFv titrated, anti-Flag HRP
[5] = biological target: T1, RBD of SARS-CoV-2 spike protein S1 …; assay: ELISA, RBD coated, scFv titrated, anti-Flag HRP
[6] = biological target: T3, S1-Fc (SARS-CoV-2 S1 protein, Fc fusion) (SARS-CoV-2, UniProt P0DTC2 16-685); assay: SPR (Biacore T200), S1 captured on anti-human Fc chip, scFv injected
[7] = biological target: T3, S1-Fc (SARS-CoV-2 S1 protein, Fc fusion); assay: as above; remark: listed apart in the source
[8] = biological target: T4, SARS-CoV-2-RBD (328-533)-Fc (SARS-CoV-2); assay: SPR (Biacore T200), RBD captured on anti-human Fc chip, scFv injected
T4 construct: also called RBD-Fc

[9] = biological target: T4, SARS-CoV-2-RBD (328-533)-Fc; assay: as above; remark: listed apart in the source
[10] = biological target: SARS-CoV-2-RBD (328-533)-His (SARS-CoV-2, UniProt P0DTC2 328-533)
[11] = biological target: HIS tagged S1 of SARS-CoV-2 (SARS-CoV-2, UniProt P0DTC2 16-685)
[12] = biological target: T2, S1 protein of SARS-CoV-2 (recombinant, …); remark: listed apart in the source
[13] = biological target: T2, S1 protein of SARS-CoV-2 (recombinant, …); remark: listed apart in the source
[14] = biological target: T2, S1 protein of SARS-CoV-2 (recombinant, …); assay: ELISA, S1 coated, IgG1 titrated, anti-human Fc HRP
[15] = biological target: T1, RBD of SARS-CoV-2 spike protein S1 …; assay: ELISA, RBD coated, IgG1 titrated, anti-human Fc HRP
[16] = biological target: T5, S1 protein of SARS-COV (ACRO Biosciences) (SARS-COV, UniProt P59594 14-667); assay: ELISA, SARS-COV S1 (ACRO) coated, anti-human Fc HRP
T5 construct: domain: S1

[17] = biological target: T6, RBD of SARS-COV (ACRO Biosciences) (SARS-COV, UniProt P59594 306-527); assay: ELISA, SARS-COV RBD (ACRO) coated, anti-human Fc HRP
T6 construct: domain: RBD; also called RBD-SARS; SARS-COV, RBD

[18] = biological target: S protein of SARS-COV-2 (Sino Biologics) (SARS-CoV-2, UniProt P0DTC2 16-1213); assay: ELISA, S protein (Sino Biologics) coated, anti-human Fc HRP
[19] = biological target: T2, S1 protein of SARS-CoV-2 (recombinant, …); assay: SPR (Biacore T200), IgG captured on protein A chip, S1 injected
[20] = biological target: T1, RBD of SARS-CoV-2 spike protein S1 …; assay: SPR (Biacore T200), IgG captured on protein A chip, RBD injected
[21] = biological target: T5, S1 protein of SARS-COV (ACRO …); assay: SPR (Biacore T200), IgG captured on protein A chip, SARS-COV S1 injected
[22] = biological target: T6, RBD of SARS-COV (ACRO Biosciences); assay: SPR (Biacore T200), IgG captured on protein A chip, SARS-COV RBD injected
[23] = biological target: T5, S1 protein of SARS-COV (ACRO …); assay: ELISA, SARS-COV S1 coated, IgG titrated, anti-human Fc HRP
[24] = biological target: T6, RBD of SARS-COV (ACRO Biosciences); assay: ELISA, SARS-COV RBD coated, IgG titrated, anti-human Fc HRP

Row | Binder | IC50 [1] [nM] | IC50 [2] [nM] | IC50 [3] [nM] | EC50 [4] [nM] | EC50 [5] [nM] | Kd [7] [nM] | koff [7] [s⁻¹] | kon [7] [M⁻¹ s⁻¹] | Kd [9] [nM] | koff [9] [s⁻¹] | kon [9] [M⁻¹ s⁻¹] | IC50 [12] [nM] | IC50 [13] [nM] | EC50 [14] [nM] | EC50 [15] [nM] | EC50 [18] [nM] | Kd [19] [nM] | koff [19] [s⁻¹] | binding result [23] | binding result [24] | other results
1 | 2020EP54-E10 scFv (scFv, also called 2020EP054-E10) scFv: QVQLVQSGAEVRKPGSSVKVSCKASGGTFSSFAISWVRQAPGQGLEWMGGIIPIFDTATYAQNFQGRVRMTADESTNTAYMELSSLTSEDTAVYYCARSTSYYDSRGDYKVGDFDYWGQGTLVTVSSGGGGSGGGGSGGGGSAIRMTQSPSSLSASVGDRVTITCQASQDISNYLNWYQQKPGKAPKLLIYDASNLETGVPSRFSGSGSGTDFTFTISSLQPEDIATYYCQQYDNLPLTFGGGTKVEIK | < 1 | 4.94 | 4.69 | 0.154 | 0.16 | 3.35 | 0.00106 | 316000 | 1.89 | 0.000906 | 477000 | – | – | – | – | – | – | – | – | – | Kd [6]: 3.35 nM; koff [6]: 0.00106 s⁻¹; kon [6]: 316000 M⁻¹ s⁻¹; Kd [8]: 1.9 nM; koff [8]: 0.000906 s⁻¹; kon [8]: 477000 M⁻¹ s⁻¹
2 | 2020EP54-E12 scFv (scFv, also called 2020EP054-E12) scFv: EVQLVESGGGLVQPGGSLRLSCAVTGFIVSSNYMNWVRQAPGKGLEWVSVIYSGGTTYYADSVKGRFTISRDKSKNTLYLQMNNLRAEDTAMYYCATLGNDYGDYGTDYWGQGTLVTVSSGGGGSGGGGSGGGGSQLVLTQPPSVSVSPGQTASISCSGDRLGQKYTSWYQQRPGQSPVLIMYQDNKRPSGIPERFSGSNSGNTATLTISGIQSMDEADYYCQVWDSGSDHAVFGGGTQLTVL | 6.69 | 8.57 | 6.58 | 0.737 | 0.486 | 13.2 | 0.000687 | 51900 | 9.61 | 0.000469 | 48900 | – | – | – | – | – | – | – | – | – | –
3 | 2020EP54-E10 IgG1 (antibody, V domains shown, also called 2020EP054-E10) VH: QVQLVQSGAEVRKPGSSVKVSCKASGGTFSSFAISWVRQAPGQGLEWMGGIIPIFDTATYAQNFQGRVRMTADESTNTAYMELSSLTSEDTAVYYCARSTSYYDSRGDYKVGDFDYWGQGTLVTVSS VL: not shown | – | – | – | – | – | – | – | – | – | – | – | 0.774 | 2.71 | 0.084 | 0.08 | 0.0846 | 1.15 | 0.000292 | – | – | Kd [10]: 0.554 nM; koff [10]: 0.000807 s⁻¹; kon [10]: 1.46e+06 M⁻¹ s⁻¹; Kd [11]: 2.3 nM; koff [11]: 0.000498 s⁻¹; kon [11]: 217000 M⁻¹ s⁻¹; EC50 [16]: 0.027 nM; EC50 [17]: 0.035 nM; kon [19]: 254000 M⁻¹ s⁻¹; Kd [20]: 0.131 nM; koff [20]: 0.00032 s⁻¹; kon [20]: 2.43e+06 M⁻¹ s⁻¹; Kd [21]: 57.1 nM; koff [21]: 0.00433 s⁻¹; kon [21]: 75800 M⁻¹ s⁻¹; Kd [22]: 3.69 nM; koff [22]: 0.00675 s⁻¹; kon [22]: 1.83e+06 M⁻¹ s⁻¹
4 | 2020EP54-E12 IgG1 (antibody, V domains shown, also called 2020EP054-E12; EP054-E12, IgG1) VH: EVQLVESGGGLVQPGGSLRLSCAVTGFIVSSNYMNWVRQAPGKGLEWVSVIYSGGTTYYADSVKGRFTISRDKSKNTLYLQMNNLRAEDTAMYYCATLGNDYGDYGTDYWGQGTLVTVSS VL: QLVLTQPPSVSVSPGQTASISCSGDRLGQKYTSWYQQRPGQSPVLIMYQDNKRPSGIPERFSGSNSGNTATLTISGIQSMDEADYYCQVWDSGSDHAVFGGGTQLTVL | – | – | – | – | – | – | – | – | – | – | – | 3.79 | 1.9 | 0.103 | 0.053 | 0.462 | – | – | no binding (tested: 200 nM (highest concentration tested)) | no binding (tested: 200 nM (highest concentration tested)) | –
5 | 2020EP54-H01 IgG1 (antibody, V domains shown, also called 2020EP054-H01; EP054-H01, IgG1) VH: QVQLVESGGGVVQPGRSLRLSCAASGFTFSSYGMHWVRQAPGKGLEWVAVISYDGSNKYYADSVKGRFTISRDNSKNTLYLQMNSLRAEDTAVYYCAKGRGWYLDYWGQGTLVTVSS VL: NFMLTQPPSVSVSPGQTASITCSGDKLGDKYACWYQQKPGQSPVLVMYEDYKRPSGIPARFSGSNSGNTATLTISRVEGGDEGDYYCQVWDSRGPEVIFGGGTKLTVL | – | – | – | – | – | – | – | – | – | – | – | – | – | 0.101 | 0.101 | 11.5 | – | – | no binding (tested: 200 nM (highest concentration tested)) | no binding (tested: 200 nM (highest concentration tested)) | –
6 | 2020EP54-B12 IgG1 (antibody, V domains shown, also called 2020EP054-B12; EP054-B12, IgG1) VH: not shown VL: SYELTQPPSVSVAPGKTARITCGGNNIGSKSVHWYQQKPGQAPVLVIYYDSDRPSGIPERFSGSNSGNTATLTISRVEAEDEADYYCQVWDSSSDVVFGGGTKLTVL | – | – | – | – | – | – | – | – | – | – | – | – | – | 0.045 | 0.045 | 0.032 | 61.9 | 0.00507 | no binding (tested: 200 nM (highest concentration tested)) | no binding (tested: 200 nM (highest concentration tested)) | kon [19]: 82000 M⁻¹ s⁻¹; Kd [20]: 6.4 nM; koff [20]: 0.00578 s⁻¹; kon [20]: 903000 M⁻¹ s⁻¹

From patent US20230220053A1 (published 2023)
